Consider six molecules from patent EP4703384A1 (Chia Tai Tianqing Pharmaceutical Group Co., Ltd., dated 2026).

Assay [1] has as its target T1, human GPRC5D protein (human, UniProt Q9NZD1 1-345).
T1 construct: also called hGPRC5D; CHO-K1-hGPRC5D^hi
In words: FACS on MM.1S cells.

Assay [2] has as its target T1, human GPRC5D protein. In words: FACS on NCI-H929 cells.
The target of assay [3] is T1, human GPRC5D protein. In words: cell-based or functional assay.
The target of assay [4] is T2, T cell surface CD3 (human, UniProt P07766 23-207; P04234 22-171; P09693 23-182). In words: cell-based or functional assay.
T2 sequence (P07766 23-207 limits assumed, chain 1 of 3): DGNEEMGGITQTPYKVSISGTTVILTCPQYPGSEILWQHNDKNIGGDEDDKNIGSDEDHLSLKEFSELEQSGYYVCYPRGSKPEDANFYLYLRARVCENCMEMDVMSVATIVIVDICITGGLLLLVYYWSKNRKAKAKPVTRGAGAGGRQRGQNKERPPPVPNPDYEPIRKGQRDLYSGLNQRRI
T2 sequence (P04234 22-171 limits assumed, chain 2 of 3): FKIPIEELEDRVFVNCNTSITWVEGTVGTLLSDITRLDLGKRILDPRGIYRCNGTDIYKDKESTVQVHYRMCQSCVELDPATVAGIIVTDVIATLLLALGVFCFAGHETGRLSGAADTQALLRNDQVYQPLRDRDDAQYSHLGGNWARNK
T2 sequence (P09693 23-182 limits assumed, chain 3 of 3): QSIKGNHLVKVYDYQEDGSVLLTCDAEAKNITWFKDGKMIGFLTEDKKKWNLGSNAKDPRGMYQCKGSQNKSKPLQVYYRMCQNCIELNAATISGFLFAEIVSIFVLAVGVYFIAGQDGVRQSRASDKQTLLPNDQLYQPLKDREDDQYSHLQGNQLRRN
For assay [5], the target named is T2, T cell surface CD3. Nature of the assay: FACS on human CD3+ T cells.
Assay [6] concerns the target T3, GPRC5A (human, UniProt Q8NFJ5 1-357).
T3 construct: Full length on CHO-K1 cells; also called RAIG1; Human GPRC5A
Nature of the assay: FACS on CHO-K1-GPRC5A cells.

Assay [7] addresses T4, GPRC5B (human, UniProt Q9NZH0 29-403).
T4 construct: Full length on CHO-K1 cells; also called RAIG2; Human GPRC5B
In words: FACS on CHO-K1-GPRC5B cells.

In assay [8] the target is T5, GPRC5C (human, UniProt Q9NQ84 24-441).
T5 construct: Full length on CHO-K1 cells; also called RAIG3; Human GPRC5C
T5 sequence (Q9NQ84 24-441 limits assumed): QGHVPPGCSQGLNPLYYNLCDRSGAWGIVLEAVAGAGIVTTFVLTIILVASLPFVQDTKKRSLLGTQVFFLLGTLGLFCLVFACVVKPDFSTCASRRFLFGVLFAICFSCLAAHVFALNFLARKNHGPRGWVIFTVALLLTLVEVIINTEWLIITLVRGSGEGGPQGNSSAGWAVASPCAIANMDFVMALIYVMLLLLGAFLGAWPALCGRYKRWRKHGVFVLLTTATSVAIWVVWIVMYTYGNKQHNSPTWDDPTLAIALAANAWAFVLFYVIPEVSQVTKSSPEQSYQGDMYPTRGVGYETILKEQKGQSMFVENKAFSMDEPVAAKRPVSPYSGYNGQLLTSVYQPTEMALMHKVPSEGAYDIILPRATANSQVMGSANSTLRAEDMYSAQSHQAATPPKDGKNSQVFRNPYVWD
Nature of the assay: FACS on CHO-K1-GPRC5C cells.

In assay [9] the target is T6, monkey GPRC5D (monkey, UniProt Q9NZD1 1-343 (human entry)).
T6 construct: Full length, on stably transfected CHO-K1 cells; also called cynoGPRC5D; CHO-K1-cynoGPRC5D
T6 chain: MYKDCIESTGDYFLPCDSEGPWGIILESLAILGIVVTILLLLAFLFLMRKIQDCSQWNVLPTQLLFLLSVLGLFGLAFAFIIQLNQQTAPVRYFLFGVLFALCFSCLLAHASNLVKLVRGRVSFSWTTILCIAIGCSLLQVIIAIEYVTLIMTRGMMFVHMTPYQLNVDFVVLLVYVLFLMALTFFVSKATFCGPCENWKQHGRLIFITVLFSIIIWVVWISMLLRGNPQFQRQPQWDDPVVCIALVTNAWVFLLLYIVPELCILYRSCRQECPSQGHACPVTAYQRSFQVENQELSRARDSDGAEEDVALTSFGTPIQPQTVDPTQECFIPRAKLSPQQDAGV
In words: FACS on CHO-K1-cynoGPRC5D cells.

Assay [10] concerns the target T1, human GPRC5D protein. Nature of the assay: FACS on CHO-K1-hGPRC5D^hi cells.
In assay [11] the target is T7, mouse GPRC5D (mouse, UniProt Q9JIL6 1-344).
T7 construct: Full length, on stably transfected CHO-K1 cells; also called murineGPRC5D; CHO-K1-murineGPRC5D
T7 sequence: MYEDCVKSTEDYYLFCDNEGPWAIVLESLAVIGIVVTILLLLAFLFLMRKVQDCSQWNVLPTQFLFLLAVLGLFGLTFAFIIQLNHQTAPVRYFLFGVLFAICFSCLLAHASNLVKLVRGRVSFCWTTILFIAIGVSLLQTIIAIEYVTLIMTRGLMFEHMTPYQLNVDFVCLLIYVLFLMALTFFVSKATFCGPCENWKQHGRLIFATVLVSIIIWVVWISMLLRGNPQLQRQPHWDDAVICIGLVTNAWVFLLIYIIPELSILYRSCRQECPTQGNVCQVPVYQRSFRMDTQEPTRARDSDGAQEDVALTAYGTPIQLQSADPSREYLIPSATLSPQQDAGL
Nature of the assay: FACS on CHO-K1-murineGPRC5D cells.

Changes are numbered by the printed parent chain.

T1 sequence (Q9NZD1 whole entry): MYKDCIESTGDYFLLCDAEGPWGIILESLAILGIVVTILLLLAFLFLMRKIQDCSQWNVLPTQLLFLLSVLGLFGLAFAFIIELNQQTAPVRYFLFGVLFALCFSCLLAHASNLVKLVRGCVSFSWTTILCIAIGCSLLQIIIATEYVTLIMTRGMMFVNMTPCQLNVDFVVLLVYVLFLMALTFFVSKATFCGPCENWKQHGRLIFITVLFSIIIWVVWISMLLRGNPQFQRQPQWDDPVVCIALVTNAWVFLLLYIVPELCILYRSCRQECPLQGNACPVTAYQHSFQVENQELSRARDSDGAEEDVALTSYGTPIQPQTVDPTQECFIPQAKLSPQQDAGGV
T4 sequence (Q9NZH0 29-403 limits assumed): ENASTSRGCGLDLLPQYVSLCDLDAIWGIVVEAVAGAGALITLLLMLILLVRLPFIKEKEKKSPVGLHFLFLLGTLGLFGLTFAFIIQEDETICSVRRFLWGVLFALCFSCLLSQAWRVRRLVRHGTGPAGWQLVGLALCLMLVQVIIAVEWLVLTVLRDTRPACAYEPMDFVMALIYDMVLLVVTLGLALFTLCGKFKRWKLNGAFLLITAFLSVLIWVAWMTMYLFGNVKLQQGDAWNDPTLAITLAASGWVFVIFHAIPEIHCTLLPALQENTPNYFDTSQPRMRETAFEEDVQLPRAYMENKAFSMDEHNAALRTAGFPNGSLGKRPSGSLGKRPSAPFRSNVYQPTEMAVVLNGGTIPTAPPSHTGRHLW
T3 sequence (Q8NFJ5 whole entry): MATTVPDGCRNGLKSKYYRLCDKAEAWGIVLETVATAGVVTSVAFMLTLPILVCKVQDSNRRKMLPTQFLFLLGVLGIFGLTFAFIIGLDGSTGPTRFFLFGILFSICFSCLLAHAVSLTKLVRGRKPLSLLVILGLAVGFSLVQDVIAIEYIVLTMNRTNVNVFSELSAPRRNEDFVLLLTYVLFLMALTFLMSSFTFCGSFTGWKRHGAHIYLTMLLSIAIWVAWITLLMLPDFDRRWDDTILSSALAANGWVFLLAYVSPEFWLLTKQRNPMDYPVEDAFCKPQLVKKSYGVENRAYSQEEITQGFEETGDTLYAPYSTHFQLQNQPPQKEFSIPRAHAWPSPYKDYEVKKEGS

B1: GC39 (bispecific antibody, human IgG1, kappa, L234A L235A)
heavy: EVQLVESGGGLVQPGGSRRVSCAASGFTFSSFGMHWVRQAPGKGLEWVAYISRGSSTIYYADTVKGRFTISRDNAKNSLYLQMNSLRAEDTAVYYCARSGYGSSSYYFDYWGQGTTVTVSSASTKGPSVFPLAPSSKSTSGGTAALGCLVKDYFPEPVTVSWNSGALTSGVHTFPAVLQSSGLYSLSSVVTVPSSSLGTQTYICNVNHKPSNTKVDKKVEPKSCDKTHTCPPCPAPEAAGGPSVFLFPPKPKDTLMISRTPEVTCVVVDVSHEDPEVKFNWYVDGVEVHNAKTKPREEQYNSTYRVVSVLTVLHQDWLNGKEYKCKVSNKALAAPIEKTISKAKGQPREPQVCTLPPSREEMTKNQVSLSCAVKGFYPSDIAVEWESNGQPENNYKTTPPVLDSDGSFFLVSKLTVDKSRWQQGNVFSCSVMHEALHNHYTQKSLSLSPGK
light: EIVLTQSPATLSASPGERATMSCRASSSIRSSYLHWYQQKPGQSPRLWIYSTSNLASGVPARFSGSGSGTDYTLTISSLEPEDAAVYYCQQFSGYPLTFGGGTKVEIKRTVAAPSVFIFPPSDEQLKSGTASVVCLLNNFYPREAKVQWKVDNALQSGNSQESVTEQDSKDSTYSLSSTLTLSKADYEKHKVYACEVTHQGLSSPVTKSFNRGEC
chain: ELVVTQEPSLTTSPGGTVTLTCRSSTGAVTTSNYANWVQQKPGQAPRGLIGGTNKRAPGTPARFSGSLLGGKAALTITGVQPEDEAEYYCALWYSNLWVFGGGTKLTVLGGGGSGGGGSGGGGSEVQLVESGGGLVQPGGSLRLSCAASGFTFNTYAMNWVRQAPGKGLEWVARIRSKYNNYATYYADSVKDRFTISRDDSKNTAYLQMNNLKTEDTAMYYCVRHGNFGNSYVSWFAYWGQGTLVTVSSGEPKSSDKTHTCPPCPAPEAAGGPSVFLFPPKPKDTLMISRTPEVTCVVVDVSHEDPEVKFNWYVDGVEVHNAKTKPREEQYNSTYRVVSVLTVLHQDWLNGKEYKCKVSNKALAAPIEKTISKAKGQPREPQVYTLPPCREEMTKNQVSLWCLVKGFYPSDIAVEWESNGQPENNYKTTPPVLDSDGSFFLYSKLTVDKSRWQQGNVFSCSVMHEALHNRYTQKSLSLSPGK
notes: also called anti-GPRC5D/anti-CD3 bispecific antibody GC39
In [1], B1 returned an EC50 of 3.71 nM. For the same molecule, the EC50 in [2] was found to be 16.7 nM. In assay [3], the “Lysis EC50(nM), MM.1S target cells with human PBMC” value turned out to be 0.0335 nM; the “Lysis EC50(nM), NCI-H929 target cells with human PBMC” value is 0.0146 nM; the “Lysis EC50(nM), RPMI-8226 target cells with human PBMC” value worked out at 0.136 nM. Besides, in assay [4], the “CD25/CD4 EC50(nM), activation of T cells in the presence of MM.1S” value is 0.0596 nM; the “CD25/CD8 EC50(nM), activation of T cells in the presence of MM.1S” value came out at 0.0448 nM; the “CD69/CD4 EC50(nM), activation of T cells in the presence of MM.1S” value was found to be 0.0438 nM; the “CD69/CD8 EC50(nM), activation of T cells in the presence of MM.1S” value came to 0.0226 nM. Further, in assay [5], it took 37.9 nM to reach a half-maximal effect (EC50) and the “Top(MFI)” value was 38000 MFI.

B2: Chi-128 (antibody, human IgG1, kappa, V domains shown)
VH: DVQLVESGGGLVQPGGSRKVSCAASGFTFSSFGMHWVRQAPEKGLEWVAYISRGSSTIYYADTVKGRFTISRDNPKNTLFLQMTSLRSEDTAMYYCARSGYGSSSYYFDYWGQGTTLTVSS
VL: ENVLTQSPAIMSASPREKVTMTCRASSSIRSSYLHWYQQKSGASPKLWIYSTSNLASGVPARFSGSGSGTSYSLTISSVEAEDAATYYCQQFSGYPLTFGGGTKLEIKR
notes: Human-mouse chimeric antibody, human IgG1 heavy chain constant region and Kappa light chain constant region
B2: the binding result in assay [6] is reported as “no binding (tested: 4.1-3000 ng/mL)”; in [7], “no binding (tested: 4.1-3000 ng/mL)”; in assay [8] it was “no binding (tested: 4.1-3000 ng/mL)”; in [9] it was “binds”; in [10], “binds”; in assay [11], “binds”.

B3: Chi-169 (antibody, human IgG1, kappa, V domains shown)
VH: EVKLVESGGGLVKPGASLKLSCAASGFTFSNYGMSWVRQTSDKRLEWVASISSGGGRIYYPDNVKGRFTISRENAKNTLYLQMSSLKSEDTALYYCTRHAMDNWGQGTSVIVSS
VL: QIVLTQSPAIMSASPGEKVTMTCSASSSVSNMYWYQQKSGTSPKRWIYDTSKLASGVPARFSGSGSGTSYSLTISSMEAEDASTYYCQQWSSNPLTFGAGTTLELKR
notes: Human-mouse chimeric antibody, human IgG1 heavy chain constant region and Kappa light chain constant region; also called chimeric antibody Chi-169
For the molecule B3, the binding result was “no binding (tested: 4.1-3000 ng/mL)” in assay [6]; “no binding (tested: 4.1-3000 ng/mL)” in [7]; “no binding (tested: 4.1-3000 ng/mL)” in assay [8]; “binds” in assay [9]; “binds” in assay [10]; “binds” in assay [11].

B4: Chi-89 (antibody, human IgG1, kappa, V domains shown)
VH: EVQLVESGGDLVKPGGSLKLSCAASGFTFSSYGMSWVRQTPDKRLEWVATISSGGSYTYYPDSVKGRFTFSRDNAKNTLYLQMSSLKSEDTAMYYCVRQALRYHMDSWGQGTSVTVSS
VL: DIVMTQSQKFMSTSVGDRVSVTCKASQNVGTNVAWYQQKPGQSPKALIYSASYRYSGVPDRFTGSGSGTDFTLTISNVQSEDLADFFCQQYYSYPWTFGGGTKLEIKR
notes: Human-mouse chimeric antibody, human IgG1 heavy chain constant region and Kappa light chain constant region; also called chimeric antibody Chi-89
With B4, the binding result in [6] was “no binding (tested: 4.1-3000 ng/mL)”; in assay [7], “no binding (tested: 4.1-3000 ng/mL)”; in assay [8], “no binding (tested: 4.1-3000 ng/mL)”; in assay [9] it was “binds”; in [10], “binds”; in assay [11] it was “binds”.

B5: Chi-105 (antibody, human IgG1, kappa, V domains shown)
VH: EVQLQQSGPELVKPGASVKMSCKASGYTFTDYYMNWVKQSHGKSLEWIGYIYPNNGGTGYNQRFKGKATLTADKSSSTAYMELRSLTSEDSAVYYCARWGGTRLGYYAMDYWGQGTSVTVSS
VL: B4 VL with A34V, A46L, S50W, Y53T, Y55H, S56T, F86Y, Y92S, S93R, W96Y
notes: as for B2
In the case of B5, the binding result in assay [6] was “no binding (tested: 4.1-3000 ng/mL)”; in [7], “no binding (tested: 4.1-3000 ng/mL)”; in assay [8] it was “no binding (tested: 4.1-3000 ng/mL)”; in [9], “binds”; in [10] it was “binds”.

B6: Chi-131 (antibody, human IgG1, kappa, V domains shown)
VH: EVQLQQSGPELVKPGASVKMSCKASGYTFTNYVMHWVKQKPGQGLEWIGYFNPYNDGTNYNEKFKGKATLTSDKSSNTAYMELSSLTSEDSAVYYCARGGVRRYFDVWGAGTTVTVSS
VL: DIQMTQSPSSLSASLGERVSLTCRASQDIGSNLNWLQLGPDGTIKRLIYATFSLDSGVPKRFSGSRSGSDYSLTISSLESEDFVDYYCQQYANFPPTFGGGTKLEIKR
notes: Human-mouse chimeric antibody, human IgG1 heavy chain constant region and Kappa light chain constant region; also called chimeric antibody Chi-131
On to B6, for which the binding result in [6] is recorded as “no binding (tested: 4.1-3000 ng/mL)”; in assay [7], “no binding (tested: 4.1-3000 ng/mL)”; in assay [8], “no binding (tested: 4.1-3000 ng/mL)”; in [9], “binds”; in assay [10], “binds”; in assay [11] it was “binds”.
